# Experimental data from the DeepSol protein solubility set.
# Assay: soluble on expression in E. coli; label from the status in PepcDB or PDB records
row,Sequence,soluble on expression in E. coli
1,MDRFMAGDLEVRCEVIYRRVKNPRIELRFDSLRLILPADFTGDPMEVLSSRSDWIQRKIHEFHEMLERASDMELEYRRDKELRSLVSGFLDHYSDVLGVEYGRVRFRRMRSRWGSCSSRGNLSFNTLLSHLPDRMVEYVVLHELAHLREMNHSPRFWGILESEMPDCTERRRMLRYYWARLYMEGLVDLEHHHHHH,soluble
2,GPGSMLRRQLHLSAIGGVSAAAAAVLDGIGPSSAAAATGTLSSSSTSLSVMASVSPLLMPCRGVKLVNPIGKQGSQHYGLEPKLEAGRDTQLKHTEMYDGYTDDFGVFKEGPPVTLRLEYVRSPDHGYSQHILQKDIWSPFQVGANMMSYTPLYYDWKGFSSRDYFGHRSGTNPGSKVLLGHYRRDEVRSWGYRIMVNHKPQKRIPKWLACVVHIPRKKTFLGFFLYANGAYVAELLTYKQLPRIIYNKAFQGCLPTIGQTVSLTEVTYGKEIHSVEMYPGHGGVICRASGTAAVVLRGSEPNLVPLLLPSKEVRLFDNMCHAVFGRRAGVMYNKQRNFSKRSVEENMPHRPKVHSKTKRVSSHPAGGGNGGSPNLLTPLDWRIHPRNCVKTKYWLSGYILRGRQYNRNQTVADLKSKTYSWANRDPVYR,not soluble
3,MAYRICLIEGDGIGHEVIPAARRVLEATGLPLEFVEAEAGWETFERRGTSVPEETVEKILSCHATLFGAATSPTRKVPGFFGAIRYLRRRLDLYANVRPAKSRPVPGSRPGVDLVIVRENTEGLYVEQERRYLDVAIADAVISKKASERIGRAALRIAEGRPRKTLHIAHKANVLPLTQGLFLDTVKEVAKDFPLVNVQDIIVDNCAMQLVMRPERFDVIVTTNLLGDILSDLAAGLVGGLGLAPSGNIGDTTAVFEPVHGSAPDIAGKGIANPTAAILSAAMMLDYLGEKEAAKRVEKAVDLVLERGPRTPDLGGDATTEAFTEAVVEALKSL,soluble
4,MSLSSAYDRKNLEKKNRELRELNDKIGDVAKTFETLQLELYNDLIKEFSKDLTSWNATIDPDNTIRFKEPDVLFDSGKSQVKERFKVVLDDFFPRYVKILSQEKYKGDIEEIRIEGHTSSEWLNAKTLEERYLGNAALSQARAFEVLKYCFALERIKGEQDWLIKVLRANGLSFAKPLDSEEHSRRVEFRTLTRSHQKMLKILDLSKEGHHHHHH,soluble
5,MAHHHHHHMSSSSSALDVPLVEVICSYPTREGLCAECPALLLLVYEHVVAELQAGRRAVDVFRGTSRQDHLSELLAVRSLSELFERLYPLSQSCILDESTASSQFWRQARVTLEAAWAAPHDAKGRALLTQVRGQPRFHFCGPRDVETPGEGYPLHPVSLERALATSKRFLRTAMTCALDGSTDALAGRQPELRAVLQLAHLVPLTPSTGAPPRKEVTPEGLSFCMVSLQQRWWILVNAALERVLLLTRAAVNGNGNTSGSSGVTKPLLWQLLAVLSVLDTTQYVFAFPERQQDLAAHHLLARLSEVGLVYPLLSNDRKCFVLSPDFLHAIHWHASAPLSLTFNHHLLRSASGVSGAGIGDLRREDTDTIITETNFRLFAYTNDADLLNILNQFAELEEIVNGNLHCYRVTRASFAAAMRKGITAAQVLRFLSLRAHPSMLRRHGEREENGDTASPSSAGGASSSFTFSASPRRGAVAGTCGSTTSIDAVSTLVVPQSFCDQMRMWESECRRVVFEHHVVLLRNMSTQQQKAVTAYLTDAGEVDAVVHAERGYMVIREEVFERLVAPLLG,not soluble
6,MSLMKNMARKNQKAPWEEEEEIIWVSRTELKNDMLALQKLGEELVELKPSALAKFPLPEDLAEAIKDAQRFKNEARRRQLQYIGKLMRHIDPEPLQAALDKLRNKHSQTTALLHKLEQLRDRIVAEGDSAIEVAMEQYPEADRQRLRLLARQASKEKAGNKPPKSSREIFQLLKEAMLAKQEIEEESEDDLDSAEEGHHHHHH,soluble
7,GMSKLSLIQQLKQQKLSVGILSANWLQLNEEVTTLLENQINVLHFDIADGQFSSLFTVGAIGIKYFPTHCFKDVHLMVRNQLEVAKAVVANGANLVTLQLEQYHDFALTIEWLAKQKTTYANQVYPVLIGACLCPETPISELEPYLDQIDVIQLLTLDPRNGTKYPSELILDRVIQVEKRLGNRRVEKLINIDGSMTLELAKYFKQGTHQIDWLVSGSALFSGELKTNLKVWKSSIM,soluble
8,MTTTLSPDTARQIVPPEERYAAELAFLAAYDDGPRPPAWRLTPRAVVTFVMGSDGRALRLPEGAETPEGVPRRLTVEGKFVGDRSLVERCVVTLAGERGLLLVGEPGTAKSMLSELLSAAVCGTSGLVVQGTAGTTEDQLKYGWNYALLLAQGPSRTALVPSPVLTAMARGGIARVEEVTRCLPEVQDALVSLLSERRIAVPELSGTDDALAHAAPGFNLIATANLRDKGVSEMSAALKRRFNFETVGPIPDLDAETALVRSQARASVERAGAPFKVDEAVLEALVVAFRDLREGRSTEGWEVERPSTVMSTAEAVSVAGALGLAAAYFPGDRDVLGLLPGHLLGVVRKDDPADAARLRGYWDGPVRRRAEQGSATWRTLWDLRTVLEGLEHHHHHH,not soluble
9,MSLRIPDKNNLMIYELLLRDFTATGDLNGAMEKIGYLKSLGFNAVELMPVQEFDGNDSWGYNPCFHFALDKAYGTDHMYKAFIDKCHEVGMAVLFDVVYNHASGSHPFARLYWDTKNNRTAADNPWFNVKEPHPYGVFHDFNHDSPLVRAFVKRNLKFLLEEYRIDGFRFDMTKGFTQNSSTEATAGSYDASRIAILKDYNETVREVNPEAVVILEHFCDEKEESELAEEGMQLWRNLNNAYCQSAMGYPSNSDFTPLVTFGTTMPYGGWVGFMESHDEERTAFKQIAYGEGPLKSDINVRMKQLAANASFFFTAPGPKMVWQFGEMGYDVSIEEGGRTGRKPLHWEYLDNEARKGLCNTYAKLLKLRREHSELFNPGSTFSWLVKTANWTGGRFLTLAATNGKRLVVVGNFTAKPIEAITSFPVTGVWTNYLDGTKLHVTSIPTGLMIPAHECRVYINEGHHHHHH,not soluble
10,MGSDKIHHHHHHMSYQIEIGSIRCFVVAAEELHFRRAAIRLNMSQPTLSQQIKRLEELMGVQLFIRSTRRVDLTRAGASFLDHARDILLKIDEAILNAKLEAGGLSPGGEELIIGAISPATSQLLPLILSRFRQRFPRTRLAIKEVDSIELLRGIERGDFHVGLMRPPSNSNLVRFRHLLSERFVAVMPRQSALARKPALRLSDFAGHGVFALKRFELSCFETVYEQLSGAGLLIENDIAVSDTNTALALVTAGAGITFLPEWVSAMAPDGVVTRVVDDMSVEISMAVGWNPDCPVPGILPFVEFATLAAQNLISARK,not soluble
11,MQKFILSAFVVALVAADCALKCPDGYFSFKRAPSAKNSMTGLWCVKAILSDTLISPNQAKQVCEKDGSILTSFENLDERTKLATVLRDFLSAKKLDRGGMIVDGHRLKNCETDDRTVLNAEPCRNSSTGFTTDEKHTDNTFMWKSWADTEPGQSIFEKQIESCLQLAISQFKSRTELINDVFCNYVKHPQNEGAYDLWNYGAVCGRLPEWN,not soluble
12,MDDHNALLAERHTIFQSSLMTALLDGIYDGEISIGELLGHGNFGIGTFDALDGEMVILDGVCYQLRGDGSASEAALTQRSPFAIATNFVPRLKARVPRGMHRSELSDFITSLLPSENYMYAVRISGMFSSVSVRTVTKQERPYRPMTQATGDDAELEFTNVSGVVAGFRTPIYEKGIGVPGCHVHFIDTDRTSGGHVLDFTMSEGTIEVCPGTDLQLRLPLTQDFSKASLAPDDLDAQIHATEVKG,not soluble
13,MTIIKLERRDVRLLLLYEFRLGHSAMEAERNICGAMGEGALSYNTAKSWFQKFKNGDFSLEEIERSGRPVELNEEDLVKLVEEEPRLSLREMEEKLECCHSTIARHLGRLGFTSKLGIWVPHELSASQKLTRVNVCTQLLTFRRKFDWLNNLVTGDEKWVLYVNHSRKRQWLPIGEKGIPTPKPDLHPKKIMICVWWGVQGPVHWELLPTNKTITADYYCAQLDRVAEKTNGKYEKLYFLHDNARPHVAKKTFQKLQDLGWTVLPHPPYSPDLAPTDYHLFLSLSDYMRDKQFDDEEHLKTELSTFFSSRSPDFFSRGIMMLPSKWQQVVDTNGEYLCE,not soluble
14,MGSDKIHHHHHHMVLMKKLMMKGNEAIAESAIRAGCRLYFAYPITPQSEIAEYMARRLPEVGGVFLQTESEIATVNMVYGAACTGKRVMTSTSSPGFSLMQEGISYIAGAELPCVFVDVVRGGPGLGNIQPSQGDYFQAVKGGGHGDYRLIVLAPSTLQEAVDLTQLAFDLADRYRNPVLILADGMIGQMMEPVELPEMRDLSTLPDHSDWALRGARNREPHRIAAFNIDPVGLEKMNKRLQEKYRLIEASEQRWEEYRVDGAEYLMVGYGTMGRILKSVVDSLREEGIPAGLFRPVTLWPFPKRRLKELAKKVQLIFVVEMSSGQMVEDVQISVEGKVPVHFYGRMGGVVPTPEEILFAFKEVRKWK,not soluble
15,MNTDILIGAIAGDIIGSYYEFVPIKSIDFPLFNGSSSHFTDDTIMTIANADWLLTGDSLLGIMQDYGNRYHSSYGSMFYEWLRADNPQPYNSWGNGSAMRVSPIDWAFNTLEETLEAAKQSAEVTHNHPEGIKGAQATAACIYLARTGKSKQEIKEYVETTFGYNLNRTCDDIRPTYHFNESCQGTIPESIIAFLESTDYESAIRLTISLGGDADTMGAITGGIAEAYYKEIPQYIIDEVLKRLSEEFIDIMQRFYRMFISS,not soluble
16,MDVKMKGIVRVVPYDPEWKTEFLKIKAMIVDCAGDLIIDVVHVGSTAIEGLASKPIIDIDVVIDSYYVFPAVKDRLAKIGFEHEGNLGVEGREAFKRTFVDDFMPYHLYICPKDGKGYLEHIAFRNYLRDHPEAVKAYGELKMRLAEQFRTDITSYVNAKREFVQNVLKKINS,soluble
17,MLKKRKLGRRIGEIQAGEKLVFQAAIEDKDLLLYLGLTDDANPLYIQHDYASQTPFGKPVVPPVMLTGMITSAVSKYLPGPGSYITRQDLRFLRPVYHYETLEFLLEVADVDEAGHCVTLSVMATRGAETVLDGTLSVCPPHTLPRLDGRVLENF,not soluble
18,MSKIDFHTHYLPTSYVEALKRHVPGDPDGWPTPEWTPQLTLNFMRDNDISYSILSLSSPHVNFGDKAETIRLVEAANDDGKSLAQQYPDQLGYLASLPIPYELDAVKTVQQALDQDGALGVTVPTNSRGLYFGSPVLERVYQELDARQAIVALHPNEPAILPKNVDIDLPVPLLGFFMDTTMTFINMLKYHFFEKYPNIKVIIPHAGAFLGIVDDEIAQYAQKVYQVDVYDVMHHVYFDVAGAVLPRQLPTLMSLAQPEHLLYGSDIPYTPLDGSRQLGHALATTDLLTNEQKQAIFYDNAHRLLTELEHHHHHH,not soluble
19,MGSDKIHHHHHHMGNEVYDAVVVGAGFAGLTAARELSRQGLAVHIVEARDRIGGRTWLDHRLGRDLEIGGTWVHWTQPHVWAELTRYGLETTPSPEPERAFWWADGCRHEGRPDELLGLIGQTNEEFVRDSRKYFPEPFRPMARDDFKSIDHVSVQARIREQFPAGAPRDILESFWALNFNGPLDNAALTQAFRWVALTNGDWAVNFEACATYKIVGGTAALAASMLADSGAGIQYGFKVEAVAEDADVVEIRSADGRTVRARTAIVTVPLHALNAVDFEPPLPAAKAEAASLGQVSKGAKVWFRLRGEHAPFVALGGADWPLNFFQVEYALDGDTIAVGFGPDAAKIEVEDPVAVQAQLARLVPGAEVVAVASHNWVDDPLSGETWPMHRTGFLSTHLPAMQASHGLVLFAGSDIANGWCGFIDGAIESGMGAALDAASLLAGGRP,not soluble
20,MPYRRRQSTAPKSGAPKSVRSAAAGQSLDIDGIHLHLTRKPIKNLYLRIKPPSGRVEISAPMRMSESRIADFVKERHSWILAQQQRMAEAQRRSIMALNEGAGFENGGRGVAGASGHDGGVAGRPKTGDISRPGIGDAGPGQAGTNVQPYFDRSQIWTDERKRQAAAAINAALPQLLAKWGPVVGRQPTHITLRVMTSRWGSCTPRTGRIRLNLQLGLMEPQFLEYVLVHEMTHLWESGHGAGFQRRMTAYLPGWKTLRRDLNRRVVLLEHHHHHH,soluble
